Test system: MS2 coat protein
Test: apparent KD of MS2 coat protein; higher = weaker reporter binding
Conditions: Eterna round: R107
In short: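 With or without constant ligand, designed RNA switches in 100 mM Tris-HCl pH 7.5, 80 mM KCl and 4 mM MgCl2 were titrated with SNAP-549-labelled MS2 coat protein. Concentrations went up in twofold steps from 0.7 or 1.5 nM to 3 µM. The switches had been transcribed on-chip from Illumina sequencing clusters, and apparent KD is the per-design median of normalised cluster binding-curve fits.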

[1] = input ligand: theophylline 20 uM
[2] = input ligand: theophylline 2 mM
[3] = input ligand: tryptophan 2.4 mM

| Sequence | apparent KD of MS2 coat protein (input ligand: arginine 13.2 mM) | apparent KD of MS2 coat protein [1] | apparent KD of MS2 coat protein [2] | apparent KD of MS2 coat protein (input ligand: none) | apparent KD of MS2 coat protein [3] |
| --- | --- | --- | --- | --- | --- |
| AUCAUAAUAGACUCGUUAGAUUAUAUGGAACGAGGACCGGUACGGCCGCCACUCGUGAUGUACAUGAGGAUCACCCAUGUUAGCU [JR_Nu_SSTryptoA_Sub025] | 15.2 nM | 18.8 nM | 17 nM | – | – |
| GACCUUGCGGGCGCCCGCAAGGUUGCGGAUACCAGCGAGGUCCAUCGCCCUUGGCAGCCGAACAUGAGGAUCACCCAUGUCGGAC [Same State - Theophylline A Attempt #3 (HarryS)] | 10.3 nM | 18.2 nM | 15.8 nM | 11.4 nM | 11.2 nM |
| GCCGCUGCCGCGGUGUGUGUGGGUGGGUGACGAGGACCGGUACGGCCGCCACUCGCGAUCGCACAUGAGGAUCACCCAUGUGUAA [Exclusion Tryp A GF20] | 13.3 nM | 20.7 nM | 19.6 nM | – | – |
| AAACGUUGCUGCGAUACCAGACAUGAGGAUCACCCAUGUACCAAGAAAACGUACAUAAAUGUCCCUUGGCAGCGCAGCAACGAAA [MAT - Exclusion Theophlline B - Mod of Eli - D28] | 141 nM | 511 nM | – | – | 635 nM |
| CGAUAUGGGACGGCCGCCACUAUUAUGUAACAAAAUAAACAUGAGGAUCACCCAUGUACAUGGGAUAGGACCGGGUCCUAUAACG [#22 Same State - Tryptophan B] | 29.6 nM | 42.5 nM | 46.2 nM | – | – |
| AAUAAGUAUCUGCUAGGUGAUCCAGCAGAUACCAGCUAGGAAACUAGCCCUUGGCAGCUGCAACAUGAGGAUCACCCAUGUAAUA [(T)'-(M)'-(T1)-(T2)-(M1)-(M2)_Design3] | 98.7 nM | 193 nM | – | – | 407 nM |
| UGUAUGUGAUGGGAUACCAGACCAGCUGGUGAUACAUGAGGAUCACCCAUGUAAAUUUGGGUCCCUUGGCAGCCCAUCGCAUACU [SSTheo B #25] | 32.4 nM | 68 nM | 63.7 nM | 22 nM | 23.9 nM |
| GGCACUCUGUAAGAUACCAGACGUCGGUGCUUACAUGAGGAUCACCCAUGUUGCUUUUUAGUCCCUUGGCAGCUUCGGAUAACCA [Oniste] | 88.6 nM | 557 nM | – | – | 230 nM |
| GAGGAUCAAGUAGAUACCAGCACAUGAGGAUCACCCAUGUAAUGGUGUCCCUCAAGAACGUGCCCUUGGCAGCUACUAUCAAAAU [Enarbeer] | 24.6 nM | 20.5 nM | – | – | 14.7 nM |
| ACAUGAGGAUCACCCAUGUAAUAAUCAGAAGGAGCGUGGAAUAACACAGGUAGGUCGCUGAUGUUUGGUUAAAUGUAAUCGUGUA [JR_SSArginiA_Sub001] | 13 nM | 18.1 nM | 17.6 nM | 13.5 nM | 17.1 nM |
| AGAUUCGACACGGCCGCCACUCGUGACGGAUUUCCGAGUGUCGAACAUGAGGAUCACCCAUGUCCGAGGACCGGGUGUUGAGUCU [XTryp B #12] | 33.7 nM | 43.8 nM | 55.9 nM | – | – |
| CGUACAUGAGGAUCACCCAUGUAGAGUGAUACCAGUCUACCUAGUGACCCUUGGCAGCACAUCGAUGGCAUCGGUGAUGCCGUUU [Atveti] | 70.1 nM | 116 nM | – | – | 117 nM |
| CGAAUAUAGGCUACGUGUCAUUGAGGCGAUACCAGAUUAUGCCAGAUCCCUUGGCAGCGCCAAACAUGAGGAUCACCCAUGUUCA [theeternabot_exclusion_MS2_Theo_A_38] | 23.5 nM | 24.8 nM | – | – | 21.5 nM |
| GGACCAGGGAGCGAUACCAGCUUGAGUGUGCUGGCCAGGCACAUGAGGAUCACCCAUGUAGGCCCUUGGCAGCGCUCCCUGGUCC [#1 Exclusion - Theophylline B Attempt #28 (HarryS)] | 9.06 nM | 16.5 nM | 12.3 nM | 9.45 nM | 14.1 nM |
| GUGUUAUGGUCGGCCGCCACUCUGACAUGAGGAUCACCCAUGUUGUACAUGAGGAUCACCCAUGUGAGGACCGGGACACGUGCGA [Exclusion Tryptophan B GF10] | 203 nM | 363 nM | 476 nM | – | – |
| UGUAUGUGAUUUGAUACCAGACCAGCUGGUGUUAUAUGAGGAUCACCCAUAUAGGUUUGGGUCCCUUGGCAGCAAAUCGCAUACU [SS Theo B #24 Ms14] | 40.7 nM | 38.8 nM | 17.4 nM | 28.6 nM | 32.5 nM |
| ACAUUUAACUGAAGGAGCGUGAUAAACAUGAGGAUCACCCAUGUACCAAAGAUUUUCAGAUCACAGGUAGGUCGCAGACUAAUGA [JR_ExcArginiB_Sub015] | 12.8 nM | 16.7 nM | 12.6 nM | 11.7 nM | 13.3 nM |
| GAUCUGUCGGGUGAUACCAGCCUCGGCACAUCUCGUGCCGAACAUGAGGAUCACCCAUGUGGCCCUUGGCAGCACAUGACAAAUC [Regebece] | 64 nM | 652 nM | – | – | 1050 nM |
| AAUAAUAAGGCGGCCGCCACUAAACAUGAGGAUCACCCAUGUCUCGCGGGCUUGCGUUGGGAAAGUAGGACCGGGCCAAUAAUAA [Exclusion - Tryptophan B (Freestyle 8)] | 16 nM | 20.6 nM | 14.7 nM | 15.7 nM | 14.4 nM |

| Sequence | apparent KD of MS2 coat protein (input ligand: arginine 13.2 mM) | apparent KD of MS2 coat protein [1] | apparent KD of MS2 coat protein [2] | apparent KD of MS2 coat protein (input ligand: none) | apparent KD of MS2 coat protein [3] |
| --- | --- | --- | --- | --- | --- |
| UGUAUGGACUGAAGGAGCGGGUAAAUAACUUGAGGAUCACCCAGGUAAAAGGCGAAAGCCACCCAGGUAGGUCGCAGUCCAUACU | 23.6 nM | 32.1 nM | 29.2 nM | 21.1 nM | 25.5 nM |
| UGUAUGUGAUUUGAUACCAGACCAGCUGGUGUUACAAGAGGAUCACCCUUGUAGGUUUGGGUCCCUUGGCAGCAAAUCGCAUACU [SS Theo B #24 Ms4] | 94.2 nM | 135 nM | 17.5 nM | 136 nM | 190 nM |
| UUUAAAAUCAGAAGGAGCGUGAUAAACAUGAGGAUCACCCAUGUCGAAAAUUUAAUAUAAUCACAGGUAGGUCGCUGUAAUAUUU [Same State - Ariginine B] | 14.2 nM | 18.6 nM | 16.5 nM | 14 nM | 14.2 nM |
| GCAUCCUAGUCGGCCGCCACUGCAUGUUGGCAGUGCUGCAACAUACAUGAGGAUCACCCAUGUUGCAGGACCGGGACUAGGAUGC [(Trp1)-(MT2)''-(T1)'-(MT2)'-(Ms2)-(Trp2)_Design1] | 23.8 nM | 28.7 nM | 25.2 nM | 24.3 nM | 22.8 nM |
| CAUGUUAGGGCGGCCGCCACUGUGGCUACGGUACAUGAGGAUCACCCAUGUUUGUGGUUGAUCUACAGGACCGGGCCCUGACACG [Erarusge] | 127 nM | 578 nM | 679 nM | 187 nM | 209 nM |
| AGACGAGAAGAGGAUUACCCAUGUACAGAAGGAGCGUCGUUGACGACAGGUAGGUCGCUGAGAACAUGAGGAUCACCCAUGUUGA [Arg A Ex t1] | 29.9 nM | 53.9 nM | 39.8 nM | 42.9 nM | 36 nM |
| AAAACCUCACCUGAGGAACACCCAGGUGAUACCAGCCUGGAAACAGGCCCUUGGCAGCACCAGGUCAUCAAAGAUGACCAAAUAA [TheoAX 25 #OpenEnded #AlternativeMS2] | 17.5 nM | 40.7 nM | 595 nM | 22.7 nM | 21.3 nM |
| UGUAACAUGAGGAUCACCCAUGUGAGUGAUACCAGAUUAGUAGUAGUCCCUUGGCAGCACAUUGGGCGAGUGUAUAGUCUAUGCG [Same State - Theophylline A (Freestyle 11)] | 94.6 nM | 219 nM | – | – | 155 nM |
| AAAAGUAGGUCCAAUAAAACUACAUGUGAAGGAGCGCGCGAAAGCGCAGGUAGGUCGCACAUGAGGAUCACCCAUGUCCUACAAA [MAT - Exclusion Arginine A - Mod of Eli - D6] | 39.8 nM | 77.2 nM | 65.7 nM | 47.3 nM | 39.8 nM |
| GCUGUACCAUGAAGGAGCGUCACGGAGUGCGAAUACACAUGAGGAUCACCCAUGUUUUUAUGGCAGGUAGGUCGCAUGGUACAGC [#02 Same State - Arginine B] | 22.8 nM | 33.3 nM | 28.4 nM | 22.3 nM | 22.9 nM |
| UAUCGUCAGACGGCCGCCACUAGAACAUGAGGAUCACCCAUGUACUAGUGGCAUACCUCAUGAACUAGGACCGGGUCUGACGAAU [(Trp1)-(Ms2)-(T)'-(M)'-(Trp2)_Design10] | 10.2 nM | 11.8 nM | 10.2 nM | – | – |
| GCCUAGCAGCGAAGGAGCGAGGUAAAUAAAUAAAUAAAUAACAAGAGGAUCACCCUUGUUCCUCAGGUAGGUCGCGCUGCUAGGC [SSAB Alternative Aptamer #1 NP+V+V2] | 16 nM | 22.7 nM | 18.9 nM | 17.5 nM | 17.9 nM |
| ACAUGGGUCUGAAGGAGCGCGAUAACAUGAGGAUCACCCAUGUAAAAUGGAACAUGAUAAUCGCAGGUAGGUCGCAGUAAAACCC [Same State Arginine B GF 11] | 133 nM | 344 nM | 704 nM | 303 nM | 365 nM |
| AGCCACUCGAGUGAUCCUCACGAGUGGCAACGAGGACCGGUACGGCCGCCACUCGAAUAAACAUGAGGAUCACCCAUGUAAUAAU [T''-M-T'-T-MS2] | 13.6 nM | 152 nM | 683 nM | – | – |
| GGAGCUACGUCGGCCGCCACUAGCGGGUAUUGCGUGUACAUGAGGAUCACCCAUGUAAUAUGGCCUAGGACCGGGACGUAGCUCC [Bison] | 13.3 nM | 22.4 nM | 16.9 nM | 16.7 nM | 16.5 nM |
| UCACGACGGAUGGAUACCAGCGACAUGAGGAUCACCCAUGUAUGAGGAUCAGCCAUGUUAUGCCCUUGGCAGCCACGAAGGUCAU [YYYMULLIN] | 13.2 nM | 29.3 nM | 195 nM | 19 nM | 18.2 nM |
| AGCGCUAUGCAUGAUACCAGCUACAUGAGGAUCACCCAUGUGCGUCAGAAAUGACUGUGUAGCCCUUGGCAGCAUAAAGCAUGUA [Exclusion - Theophylline B (Freestyle 9)] | 19.4 nM | 24.1 nM | – | – | 17.2 nM |
| CCCAGUUAUAUCAAAGGAAUUAUACUCGAAGGAGCGUCAUAGUAGGCAGGUAGGUCGCGAGACAUGAGGAUCACCCAUGUAGAGA [pxpmullin] | 37.6 nM | 58.4 nM | 34.5 nM | 51.6 nM | 30.4 nM |
| CUCCUGGGAGCGGCCGCCACUGGAGGCCUUGCGCGACAUGAGGAUCACCCAUGUUGUCCCGGCCUCAGGACCGGGUUCGCGCGAG [Same State - Tryptophan B Attempt #1] | 6.5 nM | 10.2 nM | 9.71 nM | 8.09 nM | 8.67 nM |

Reference: the supplement of paper PMC9170038
